Source: patent US20140031247

Legend:
[1] = system: N1-Sb1 substrate with P2 substitution C1752M
[2] = system: biotinylated recombinant Notch1 substrate N1-Sb1
[3] = system: N1-Sb1 substrate with P2 substitution C1752V
[4] = system: N1-Sb1 substrate with P2 substitution C1752A

Chain of biotinylated recombinant Notch1 substrate N1-Sb1 (chain, as listed by the source): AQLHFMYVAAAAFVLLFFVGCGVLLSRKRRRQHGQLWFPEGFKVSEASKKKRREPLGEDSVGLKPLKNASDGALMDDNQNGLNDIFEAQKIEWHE

Row | Substance | rate of γ-secretase cleavage compared with WT substrate [1] | Km [2] | apparent Km [2] | rate of γ-secretase cleavage compared with WT substrate [3] | rate of γ-secretase cleavage compared with WT substrate [4]
1 | γ-secretase with wild type PS1 (membrane of knock-in wild type PS1 mouse brain) | C1752M substrate also had no effect on WT PS1 (left panel) | The Km values of WT and M146V PS1 are 60 and 48 nM, respectively |  |  | 
2 | γ-secretase of HeLa cell membrane |  |  | the apparent Km of N1-Sb1 cleavage by γ-secretase is 0.15±0.03 µM |  | 
3 | γ-secretase with M146L PS1 (membrane of N2a cells stably expressing M146L PS1) | significantly enhanced activity for M146L (166.4±6.1%) | the Km values for N1-Sb1 cleavage by PS1 wild-type, M146L, and E280A FAD mutants are 70, 49, and 50 nM, respectively |  | considerably increased reactivity for M146L PS1 γ-secretase (141.3±17.9%0 | significantly reduced reactivity for all three forms of γ-secretase (20-30% remaining)
4 | γ-secretase with M146V PS1 (membrane of M146V PS1 knock-in mouse brain) | enhanced activity for M146V knock-in PS1 (127.4±3.7%) | The Km values of WT and M146V PS1 are 60 and 48 nM, respectively |  |  | 
5 | γ-secretase with E280A PS1 (membrane of N2a cells stably expressing E280A PS1) | E280A (185.5±7.4%) PS1 | the Km values for N1-Sb1 cleavage by PS1 wild-type, M146L, and E280A FAD mutants are 70, 49, and 50 nM, respectively |  | had no effect on WT (left panel) and E280A PS1 (right panel) | significantly reduced reactivity for all three forms of γ-secretase (20-30% remaining)
6 | γ-secretase with wild-type PS1 (membrane of N2a cells stably expressing WT PS1) | C1752M substrate had no effect on WT (left panel) | the Km values for N1-Sb1 cleavage by PS1 wild-type, M146L, and E280A FAD mutants are 70, 49, and 50 nM, respectively |  | had no effect on WT (left panel) and E280A PS1 (right panel) | significantly reduced reactivity for all three forms of γ-secretase (20-30% remaining)
